The experiment concerns the target Homo sapiens ubiquitin (human, UniProt P0CG48 1-76). The experiment is described as follows: SPR.

For 1 molecule, Kd results are on record in publication doi:10.1101/2023.07.25.550441 (bioRxiv, 2023).

Usually Kd stands for the equilibrium constant for the complex coming apart. A lower Kd goes with higher affinity.

B1: S. cerevisiae UEV (domain or fragment)
chain: AVVNWLFKVIQPIYNDGRTTFHDSLALLDNFHSLRPRTRVFTHSDGTPQLLLSIYGTISTGEDGSSPHSIPVIMWVPSMYPVKPPFISINLENFDMNTISSSLPIQEYIDSNGWIALPILHCWDPAAMNLIMVVQELMSLLHEPPQDQAP
With B1, the Kd stood at 37.9 mM.
